Molecular target: recombinant Smc04048 cytochrome c from Sinorhizobium meliloti (Sinorhizobium meliloti)
Assay: SEC

stoichiometry N: 2
Substance: recombinant Smc04048 cytochrome c from Sinorhizobium meliloti (natural protein)

From PMC3153034
